Results on two proteins are retold here after PMC4963926 (Journal of Translational Medicine, 2016).

The data set deals with the molecule itself. Briefly: SDS-PAGE and immunoblotting of the purified protein. On the technique in general: Immunoblotting shows a protein as a band on a membrane.

B1: HPV11 His6-E6 protein (natural protein)
chain: MESKDASTSATSIDQLCKTFNLSLHTLQIQCVFCRNALTTAEIYAYAYKNLKVVWRDNFPFAACACCLELQGKINQYRHFNYAAYAPTVEEETNEDILKVLIRCYLCHKPLCEIEKLKHILGKARFIKLNNQWKGRCLHCWTTCMEDLLP
With B1, the binding result was “binds”.

B2: HPV16 His6-E6 protein (natural protein)
chain: MHQKRTAMFQDPQERPRKLPQLCTELQTTIHDIILECVYCKQQLLRREVYDFAFRDLCIVYRDGNPYAVCDKCLKFYSKISEYRHYCYSLYGTTLEQQYNKPLCDLLIRCINCQKPLCPEEKQRHLDKKQRFHNIRGRWTGRCMSCCRSSRTRRETQL
notes: also called HR-HPV16 His6-E6; HPV16 E6
Regarding B2, the binding result was “binds”.
